Broadly, the stoichiometry N is the number of molecules, sites or subunits per partner or assembly.

The text below walks through data of paper PMC7934860, “Acetylation of muscle creatine kinase negatively impacts high-energy phosphotransfer in heart failure” (JCI Insight, 2021).

Data set [1] deals with the molecule itself. Kind of data set: native gel or EMSA; human rCKM, nonacetylated or in vitro acetylated, on 10% native-PAGE at 4°C (running buffer 50 mM Tris-Base, 50 mM MOPS, 0.0375% SDS, pH 7.8), blotted with anti-CKM; dimer and monomer bands by densitometry; dimer to monomers. (In general: In EMSA bound probe runs differently from free probe, usually more slowly.)
Data set [2] deals with the molecule itself. Kind of data set: native gel or EMSA; CKM enriched from TAC-stressed mouse hearts, incubated with or without Sirt2 in vitro, then native-PAGE and anti-CKM blot; dimer to monomers.
Data set [3] deals with the molecule itself. Kind of data set: cross-linking; quantitative crosslinking MS (XL-MS) with the PIR crosslinker BDP-NHP on rCKM: control, acetylated, and Sirt2-deacetylated; links mapped to PDB 1U6R.
Data set [4] deals with the molecule itself. The data set is described as follows: native gel or EMSA; murine cardiac lysates of sham and TAC hearts (50 mM potassium phosphate, 1 mM EDTA, 1 mM beta-mercaptoethanol, pH 7.4, 0.1% Triton X-100) on 10% native-PAGE at 4°C, blotted with anti-CKM; dimer to monomers.

B1: Human recombinant creatine kinase MM (rCKM), nonacetylated (enzyme)
chain: not shown
notes: creatine kinase M-type (muscle form, CKM), human; 381-amino acid polypeptide; The rows are of the chain with itself (MM homodimer); also called Human CK MM; CK muscle form; source: bought: R & D Systems (catalog 9070-CK) and Abcam (catalog ab73652)
On to B1, for which the “stoichiometry N” value in data set [1] came to 2.

B2: CKM enriched from TAC-stressed mouse hearts, deacetylated in vitro by Sirt2 (enzyme)
chain: not shown
modifications: lysine acetylation of failing-heart CKM, reduced by Sirt2
notes: creatine kinase M-type (CKM), mouse (129S1/SvImJ); also called enriched CKM from TAC-stressed hearts + Sirt2; source: enriched from TAC mouse hearts (Blue Sepharose, Deae Sephadex A-50), then incubated with Sirt2
B2: the “fold decrease of the monomer against enriched TAC CKM without Sirt2” value in data set [2] is 3.5 fold.

B3: Human recombinant CKM, in vitro acetylated (enzyme)
chain: not shown
modifications: acetyl-lysine at several lysines after in vitro acetylation (lysine residues 11, 32 and 196 are named; full list in Figure 5D)
notes: creatine kinase M-type (muscle form, CKM), human; 381-amino acid polypeptide; Same protein as m1 after in vitro acetylation; also called acetylated rCKM; in vitro acetylated rCKM
With B3, in data set [1], the “fold decrease of the dimer band against nonacetylated rCKM” value came out at 2.1 fold and the “fold increase of the monomer band against nonacetylated rCKM” value came out at 5.6 fold. In addition, in data set [3], the “fold reduction of the homodimer crosslink K11-K11 against control rCKM” value was found to be 2 fold and the “fold reduction of the homodimer crosslink K196-K196 against control rCKM” value was 9 fold.

B4: Murine CKM in cardiac lysates of sham and TAC-stressed hearts (enzyme)
chain: not shown
modifications: lysine acetylation, significantly higher in the failing (TAC) hearts
notes: creatine kinase M-type (CKM), mouse (129S1/SvImJ); Sham and TAC hearts are kept as one molecule; the treatment is named in the rows; also called muscle CK isoform; source: endogenous, mouse heart lysate (sham and TAC, 12 weeks)
Take B4: in data set [4], the “fold decrease of the dimer content, TAC against sham hearts” value was 1.4 fold and the “fold increase of the monomer, TAC against sham hearts” value was found to be 2.8 fold.

B5: Human recombinant CKM, in vitro acetylated and then deacetylated by Sirt2 (enzyme)
chain: not shown
modifications: acetyl-lysines removed in part by Sirt2 (lysine residues 11, 32 and 196 robustly deacetylated)
notes: creatine kinase M-type (muscle form, CKM), human; 381-amino acid polypeptide; Same protein as m2 after the in vitro deacetylation reaction; also called Sirt2-treated rCKM; Sirt2 deacetylated rCKM
B5: in data set [3], the “fold increase of the homodimer crosslink K11-K11 against acetylated rCKM” value is 1.3 fold and the “fold increase of the homodimer crosslink K196-K196 against acetylated rCKM” value amounted to 1.8 fold.
